For 1 molecule, IC50 results are on record in paper PMC5847526 (2018).

In this test the target is Lumi4-Tb-SNAP-FLT3 on HEK293 cells (UniProt P36888 27-993, Lumi4-Tb on the SNAP tag). Description: FRET.
Chain of Lumi4-Tb-SNAP-FLT3 on HEK293 cells (P36888 27-993): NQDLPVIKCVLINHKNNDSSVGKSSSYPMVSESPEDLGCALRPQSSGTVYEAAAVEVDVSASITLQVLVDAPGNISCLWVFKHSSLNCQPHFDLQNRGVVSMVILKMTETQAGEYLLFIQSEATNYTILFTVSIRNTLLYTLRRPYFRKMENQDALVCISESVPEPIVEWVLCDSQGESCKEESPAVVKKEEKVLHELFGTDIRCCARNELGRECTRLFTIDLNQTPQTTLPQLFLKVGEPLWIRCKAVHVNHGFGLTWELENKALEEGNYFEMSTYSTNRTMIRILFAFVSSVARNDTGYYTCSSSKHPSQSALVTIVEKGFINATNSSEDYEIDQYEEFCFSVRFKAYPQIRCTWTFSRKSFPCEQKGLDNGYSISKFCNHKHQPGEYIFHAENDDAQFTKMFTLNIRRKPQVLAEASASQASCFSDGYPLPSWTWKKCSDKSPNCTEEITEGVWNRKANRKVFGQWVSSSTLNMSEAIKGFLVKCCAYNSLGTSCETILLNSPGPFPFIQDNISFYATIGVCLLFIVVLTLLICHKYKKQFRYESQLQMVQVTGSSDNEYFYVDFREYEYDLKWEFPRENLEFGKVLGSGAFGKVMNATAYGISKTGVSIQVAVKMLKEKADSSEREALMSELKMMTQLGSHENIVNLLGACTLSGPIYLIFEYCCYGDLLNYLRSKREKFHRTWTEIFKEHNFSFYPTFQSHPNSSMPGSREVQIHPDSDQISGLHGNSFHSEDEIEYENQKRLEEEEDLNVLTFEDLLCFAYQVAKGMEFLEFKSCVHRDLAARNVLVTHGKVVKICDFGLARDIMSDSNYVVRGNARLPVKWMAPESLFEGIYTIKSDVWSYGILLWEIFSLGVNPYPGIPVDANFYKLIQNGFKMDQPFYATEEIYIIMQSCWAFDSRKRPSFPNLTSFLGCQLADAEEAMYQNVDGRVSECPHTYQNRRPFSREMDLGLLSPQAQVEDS

B1: human recombinant FL (rh-FLT3-L), labelled as Red-FL (ligand)
chain: TQDCSFQHSPISSDFAVKIRELSDYLLQDYPVTVASNLQDEELCGGLWRLVLAQRWMERLKTVAGSKMQGLLERVNTEIHFVTKCAFQPPPSCLRFVQTNISRLLQETSEQLVALKPWITRQNFSRCLELQCQPDSSTLPPPWSPRPLEATAPTAPQPPLLLLLLLPVGLLLLAAAWCLHWQRTRRRTPRPGEQVPPVPSPQDLLLVEH
modifications: red fluorophore (Red-FL), position not stated
Turning to B1, half-maximal inhibition (IC50) required 570 pM.

As usually defined, the IC50 is the midpoint of a concentration-inhibition curve.
